The values that follow come from patent US20250346679A1 (INVOX PHARMA, published 2025).

Assay [1] concerns the target T1, cynomolgus CD137, cell-surface (cynomolgus, UniProt Q07011 24-255 (human entry)).
T1 chain: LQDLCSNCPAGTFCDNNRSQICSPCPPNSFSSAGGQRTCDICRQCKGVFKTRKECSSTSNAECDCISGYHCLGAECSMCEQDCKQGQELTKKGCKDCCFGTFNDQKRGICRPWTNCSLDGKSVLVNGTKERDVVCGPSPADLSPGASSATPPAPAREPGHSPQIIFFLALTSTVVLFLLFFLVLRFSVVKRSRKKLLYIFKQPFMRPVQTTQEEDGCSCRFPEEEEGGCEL
The experiment in a line: cell-based or functional assay.

Assay [2] concerns the target T2, mouse FcRn (R&D systems, 9114-Fc) (mouse, UniProt Q61559 22-297; P01887 21-119, limits assumed).
T2 sequence (looked up) 1: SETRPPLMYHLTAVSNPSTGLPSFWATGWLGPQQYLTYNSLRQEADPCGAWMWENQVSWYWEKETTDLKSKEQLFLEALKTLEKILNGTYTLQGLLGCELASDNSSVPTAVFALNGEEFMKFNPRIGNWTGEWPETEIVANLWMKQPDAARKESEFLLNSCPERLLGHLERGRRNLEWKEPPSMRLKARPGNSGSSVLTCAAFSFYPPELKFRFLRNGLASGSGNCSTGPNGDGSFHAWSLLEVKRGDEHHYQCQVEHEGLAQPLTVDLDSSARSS
T2 sequence (looked up) 2: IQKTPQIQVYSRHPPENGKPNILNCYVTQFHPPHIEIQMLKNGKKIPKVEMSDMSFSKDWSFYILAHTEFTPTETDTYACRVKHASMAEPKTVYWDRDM
Kind of assay: SPR, mAb^2 immobilised, FcRn in flow, pH 6.0, steady state affinity; pH 6.0. From the text:
(§1) The neonatal Fc receptor (FcRn) binding is critical for antibody recycling (Martins et al., 2016). […] G1-AA/HeID1.3 was included as an isotype control IgG control lacking mutations in the CH3 domain.
(§2) Briefly, mAb² were individually coated on flow cell 2, 3 and 4 of Series S Sensor Chip CM5 (GE Healthcare, BR100530) to achieve a response of approximately 1000 RU. Flow cell 1 was activated/deactivated but left blank as a reference. Human FcRn (Acro Biosystems, FCM-H5286) or mouse FcRn (R&D systems, 9114-Fc) was dialysed and diluted in MHBS-EP⁺B pH 6.0 or pH 7.4 buffer (10 mM MES, FortéBio, 18-5026; 1×HBS-EP, GE Healthcare, BR100669; 0.1 mg/ml BSA, Sigma, A7906) and injected on flow cell 1, 2, 3 and 4 at 2000-3000 nM with 2-fold dilutions for 1 min at 80 μl/min and then allowed to dissociate in buffer for 3 min. […] Subtracted data (flow cell 2−flow cell 1, flow cell 3−flow cell 1, or flow cell 4−flow cell 1) was analysed using Biacore T200 Evaluation Software 2.0 to identify binding using the model steady state affinity.
A general note: SPR reads the build-up and loss of mass on a sensor chip optically.

Assay [3] addresses Human FcRn (Acro Biosystems, FCM-H5286) (human, UniProt P55899 24-297; P61769 21-119). The description is as above.
Excerpt: as §1, §2

Assay [4] has as its target human PD-L1, cell-surface (human, UniProt Q9NZQ7 19-290). The experiment in a line: cell-based or functional assay.

human PD-L1, cell-surface, sequence (Q9NZQ7 19-290): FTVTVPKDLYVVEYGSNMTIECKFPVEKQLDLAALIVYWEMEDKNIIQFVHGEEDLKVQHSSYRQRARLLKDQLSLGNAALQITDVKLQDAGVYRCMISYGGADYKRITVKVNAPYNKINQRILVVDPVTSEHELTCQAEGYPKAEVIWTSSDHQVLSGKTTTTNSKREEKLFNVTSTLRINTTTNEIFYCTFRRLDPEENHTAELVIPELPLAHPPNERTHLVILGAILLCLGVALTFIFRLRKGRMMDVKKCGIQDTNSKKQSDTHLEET
Human FcRn (Acro Biosystems, FCM-H5286), sequence (P55899 24-297 limits assumed, chain 1 of 2): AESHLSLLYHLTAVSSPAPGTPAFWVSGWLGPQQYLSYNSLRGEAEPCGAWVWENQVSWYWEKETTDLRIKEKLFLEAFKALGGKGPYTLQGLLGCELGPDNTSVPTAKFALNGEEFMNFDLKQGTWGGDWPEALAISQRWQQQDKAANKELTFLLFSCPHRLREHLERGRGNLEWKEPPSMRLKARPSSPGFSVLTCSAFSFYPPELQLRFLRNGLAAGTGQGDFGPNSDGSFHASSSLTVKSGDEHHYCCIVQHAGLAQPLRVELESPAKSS
Human FcRn (Acro Biosystems, FCM-H5286), sequence (P61769 21-119 limits assumed, chain 2 of 2): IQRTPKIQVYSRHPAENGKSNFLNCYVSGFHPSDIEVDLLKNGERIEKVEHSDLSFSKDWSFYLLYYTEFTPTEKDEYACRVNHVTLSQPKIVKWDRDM

B1: FS22-172-003-AA/E12v2 (bispecific antibody, human IgG1, kappa, L234A L235A)
heavy: EVQLVQSGAEVKRPGASVKVSCKASGYPFTSYGISWVRQAPGQGLEWMGWISAYSGGTNYAQKLQGRVTMTTDTSTSTAYMELRSLRSDDTAVYYCARDLFPTIFGVSYYYYWGQGTLVTVSSASTKGPSVFPLAPSSKSTSGGTAALGCLVKDYFPEPVTVSWNSGALTSGVHTFPAVLQSSGLYSLSSVVTVPSSSLGTQTYICNVNHKPSNTKVDKKVEPKSCDKTHTCPPCPAPEAAGGPSVFLFPPKPKDTLMISRTPEVTCVVVDVSHEDPEVKFNWYVDGVEVHNAKTKPREEQYNSTYRVVSVLTVLHQDWLNGKEYKCKVSNKALPAPIEKTISKAKGQPREPQVYTLPPSRDELPYIIPPYNQVSLTCLVKGFYPSDIAVEWESNGQPENNYKTTPPVLDSDGSFFLYSKLTVGADRWLEGNVFSCSVMHEALHNHYTQKSLSLSPG
light: DIQMTQSPSTLSASVRDRVIITCRASQSIGNRLAWYQHKPGKAPKLLIYEASTSETGVPSRFSGSGSGTDFTLTISSLQPEDFATYYCQQSYSTPYTFGQGTKLEIKRTVAAPSVFIFPPSDEQLKSGTASVVCLLNNFYPREAKVQWKVDNALQSGNSQESVTEQDSKDSTYSLSSTLTLSKADYEKHKVYACEVTHQGLSSPVTKSFNRGEC
notes: PD-L1 site in the Fab, CD137 site in the CH3, LALA; also called anti-human CD137/PD-L1 mAb^2
B1: in assay [1], the “EC50 (nM) (crosslinked), mIL-2 release, DO11.10.cCD137 with HEK.cyPD-L1” value was determined as 0.06 nM and the “Emax (pg/ml) (crosslinked), mIL-2 release, DO11.10.cCD137 with HEK.cyPD-L1” value came to 11300 pg/mL. The molecule further had an equilibrium dissociation constant (Kd) in assay [2] of 158 nM. In addition, the dissociation constant (Kd) in assay [3] was 1120 nM. In addition, in assay [4], the “EC50 (nM), IFN-γ release, human MLR” value turned out to be 0.02 nM and the “Emax (pg/ml), IFN-γ release, human MLR” value was 2630 pg/mL.

What is called Kd is the concentration at which binding is half-saturated.
